According to article PMC4585563:

Target: CTNNBL1^Q238A (human) (UniProt Q8WYA6)
Test: SEC; Superdex 200 10/300, 500 μl of 2 mg/ml protein, 0.5 ml/min, 40 mM Tris-HCl pH 8.0, 150 mM NaCl; molecular weight from calibration standards

- stoichiometry N: 2
Substance: CTNNBL1^Q238A (from UniProt Q8WYA6 77-563) (domain or fragment)
